Consider 8 molecules from paper PMC10694767 (Cell Reports Medicine, 2023).

In experiment [1] the target is T1, gHgL-gp42 complex (soluble gHgL with soluble gp42) (Epstein-Barr virus (HHV-4), strain M81, strain). As to the kind of experiment: SPR. In general terms: In SPR one partner is held on a chip, and binding of the other changes the refractive index at the surface.
In experiment [2] the target is virion-encoded gHgL expressed on the cell surface of EBV-positive CNE2 cells (Epstein-Barr virus (HHV-4), strain in …). Nature of the experiment: flow cytometry on cells.
The target of experiment [3] is T1, gHgL-gp42 complex (soluble gHgL with …). Nature of the experiment: SEC. For orientation: Size exclusion chromatography separates by hydrodynamic size, large species first.
Experiment [4] has as its target T2, soluble EBV gp42 (ectodomain, aa 34-223) (Epstein-Barr virus, strain M81, UniProt P03205). Nature of the experiment: SPR.
Experiment [5] addresses T3, virion-encoded gp42 expressed on the cell surface of EBV-positive CNE2 cells (Epstein-Barr virus (HHV-4); strain …).
T3 chain: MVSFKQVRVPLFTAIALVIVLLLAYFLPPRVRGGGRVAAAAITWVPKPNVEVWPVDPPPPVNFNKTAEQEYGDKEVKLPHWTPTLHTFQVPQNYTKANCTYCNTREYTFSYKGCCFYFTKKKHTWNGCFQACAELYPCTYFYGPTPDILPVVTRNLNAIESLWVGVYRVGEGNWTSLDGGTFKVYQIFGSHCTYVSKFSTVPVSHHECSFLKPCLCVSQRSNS
As to the kind of experiment: flow cytometry on cells. (In flow cytometry, cells or beads pass a laser one at a time.)

For experiment [6], the target named is T2, soluble EBV gp42 (ectodomain, aa 34-223). Nature of the experiment: cell-based or functional assay.
Experiment [7] has the same target. As to the kind of experiment: cryo-EM structure.

B1: 10E4 (anti-gHgL rabbit mAb, constant regions replaced with human IgG1) (antibody, V domains shown)
VH: QQVKESGGRLVTPGTPLTLTCTASGFSLSTYWMSWVRQAPGKGLEYIGVIGGSGSTYYASWAKGRFTISKTSTTVDLKITSPTTEDTATYFCARDSGAGVRFRFWGPGTLVTVSS
VL: DLVMTQTPASVEAGVGGTVTINCQASENIGSRLAWYQQKPGQPPKLLIYRASTLESGVPSRFKGSGSGTEFTLTISDLECADAATYYCQCTYGVSITINYGNDFGGGTEVVVK
For the molecule B1, the binding result in experiment [1] and in experiment [2] was “binds” throughout.

B2: 10E4 Fab (Fab, V domains shown)
VH: QQVKESGGRLVTPGTPLTLTCTASGFSLSTYWMSWVRQAPGKGLEYIGVIGGSGSTYYASWAKGRFTISKTSTTVDLKITSPTTEDTATYFCARDSGAGVRFRFWGPGTLVTVSS
VL: DLVMTQTPASVEAGVGGTVTINCQASENIGSRLAWYQQKPGQPPKLLIYRASTLESGVPSRFKGSGSGTEFTLTISDLECADAATYYCQCTYGVSITINYGNDFGGGTEVVVK
For the molecule B2, in experiment [3], the binding result is reported as “binds”.

B3: 3E8 (anti-gp42 rabbit mAb, constant regions replaced with human IgG1) (antibody, V domains shown)
VH: QPVKESGGRLVTPGTPLTLTCTASGFSLSSYWMSWVRQARGKGLEWIGTATAGGSAWYASWAKGRFTISRTSTTVELRMTSLTTEDTATYFCARDPPGHSGLWGRGTLVTVSS
VL: DLVMTQTPASVEAAVGGTVTIKCQASESIGNALAWYQQKPGQPPKLLIYDTSNLASGVSSRFRGSGSGTQFTLTISDLECADAATYYCQTYYYSGVTTTYQAFGGGTEVDVK
For the molecule B3, the binding result in experiment [1] and in experiment [5] was “binds” each time. In experiment [4], this molecule displayed a Kd of 420 pM.

B4: 3E8 Fab (Fab, V domains shown)
VH: QPVKESGGRLVTPGTPLTLTCTASGFSLSSYWMSWVRQARGKGLEWIGTATAGGSAWYASWAKGRFTISRTSTTVELRMTSLTTEDTATYFCARDPPGHSGLWGRGTLVTVSS
VL: DLVMTQTPASVEAAVGGTVTIKCQASESIGNALAWYQQKPGQPPKLLIYDTSNLASGVSSRFRGSGSGTQFTLTISDLECADAATYYCQTYYYSGVTTTYQAFGGGTEVDVK
In the case of B4, the binding result in experiment [3] is reported as “binds”.

B5: 5E3 (anti-gp42 rabbit mAb, constant regions replaced with human IgG1) (antibody, V domains shown)
VH: QPVEESGGRLVTPGTPLTLTCTVSGFSLSTYAMSWVRQAPGKGLEWIGTISASDTTYFANWTKGRFTISKASTTVDLKITSPTTEDTATFFCARFSAYESNRDYFDTFDPWGPGTLVTVSS
VL: DVVMTQTPSPVSAAVGGTVTIKCQASQNIYRDLAWYQQNPGQPPKLLIYGASNLASGVPSRFSGSGSGTEYILTISDLECADAATYYCQCSAYGSGYAAHAFGGGTKVDIK
Consider B5, for which the binding result in experiment [1] and in experiment [5] was “binds” throughout. Moreover, in experiment [6], the “IC50 of neutralisation of EBV infection of Akata B cells; blocks gp42:HLA-II” value was 0.2 µg/mL. Also, in experiment [4], the Kd came out at 390 pM.

B6: 5E3 Fab (Fab, V domains shown)
VH: QPVEESGGRLVTPGTPLTLTCTVSGFSLSTYAMSWVRQAPGKGLEWIGTISASDTTYFANWTKGRFTISKASTTVDLKITSPTTEDTATFFCARFSAYESNRDYFDTFDPWGPGTLVTVSS
VL: DVVMTQTPSPVSAAVGGTVTIKCQASQNIYRDLAWYQQNPGQPPKLLIYGASNLASGVPSRFSGSGSGTEYILTISDLECADAATYYCQCSAYGSGYAAHAFGGGTKVDIK
Turning to B6, the binding result in experiment [7] and in experiment [3] was “binds” in each case.

B7: 6H2 (anti-gHgL mAb, constant regions replaced with human IgG1) (antibody, V domains shown)
VH: EVKLLESGGGLVQPGGSLKLSCAASGFDFSRYWMTWVRQAPGQGLEWIGEINPDSSTINYTPSLKDKFIISRDNAKNTLYLQVSKLRSEDTALYYCARSPYYYGSSYDVWGAGTAVTVSS
VL: DIVMSQSPSSLAVSAGEKVTMNCKSSQSLLNSRTRKNYLAWYQQKPGQSPKLLIYWASTRESGVPDRFTGSGSGTDFTLTISSVQAEDLAFYYCKQSYNLPTFGGGTKLEIK
With B7, the binding result in experiment [1] and in experiment [2] was “binds” in each case.

B8: 6H2 Fab (Fab, V domains shown)
VH: EVKLLESGGGLVQPGGSLKLSCAASGFDFSRYWMTWVRQAPGQGLEWIGEINPDSSTINYTPSLKDKFIISRDNAKNTLYLQVSKLRSEDTALYYCARSPYYYGSSYDVWGAGTAVTVSS
VL: DIVMSQSPSSLAVSAGEKVTMNCKSSQSLLNSRTRKNYLAWYQQKPGQSPKLLIYWASTRESGVPDRFTGSGSGTDFTLTISSVQAEDLAFYYCKQSYNLPTFGGGTKLEIK
Consider B8, for which the binding result in experiment [3] was “binds”.

As a reminder, the Kd is the constant that tells how readily two partners part at equilibrium. Higher therefore signals weaker binding.
